PMC4432371, “Functional Characterization of Novel Sesquiterpene Synthases from Indian Sandalwood, Santalum album” (Scientific Reports, 2015)

Experiments:
SaFDS = SaFDS (Santalum album, UniProt E3W209); experiment: GC / GC-MS of (E,E)-farnesol after alkaline phosphatase; format: biochemical; settings: 25 mM HEPES, 10% glycerol, 5 mM DTT, 10 mM MgCl2, pH 7.4, 30 °C
SaSS = SaSS (Santalum album, UniProt E3W202, Y539W); experiment: GC / GC-MS product analysis; format: biochemical; settings: data not shown; mutant sequence NCBI JQ690659; assay form of the mutant not described
[1] = substrate: CC(C)=CCC/C(C)=C/CC/C(C)=C/CO[P@@](=O)(O)OP(=O)(O)O; experiment: GC quantification of product, steady-state kinetics; format: biochemical, Santalum album; settings: apparent Km, HEPES buffer, 30 °C, 5 min, 5 μM enzyme
Text: GC quantification of product, steady-state kinetics on SaSQS2

[2] = substrate: CC(C)=CCC/C(C)=C/CC/C(C)=C/CO[P@@](=O)(O)OP(=O)(O)O; experiment: as above; format: biochemical, Santalum album; settings: apparent Km, HEPES buffer, 30 °C, 5 min, 5 μM enzyme; remark: listed apart in the source
Text: GC quantification of product, steady-state kinetics on SaBS

[3] = substrate: CC(C)=CCC/C(C)=C/CC/C(C)=C/CO[P@@](=O)(O)OP(=O)(O)O; experiment: as above; format: biochemical, Santalum album; settings: apparent Km, HEPES buffer, 30 °C, 5 min, 5 μM enzyme; remark: listed apart in the source
Text: GC quantification of product, steady-state kinetics on SaSS

[4] = substrate: CC(C)=CCC/C(C)=C/CC/C(C)=C/CO[P@@](=O)(O)OP(=O)(O)O; experiment: as above; format: biochemical, Santalum album; settings: apparent Km, HEPES buffer, 30 °C, 5 min, 5 μM enzyme; remark: listed apart in the source
Text: GC quantification of product, steady-state kinetics on SaSQS1

Chain of SaFDS (E3W209 entry or part of it): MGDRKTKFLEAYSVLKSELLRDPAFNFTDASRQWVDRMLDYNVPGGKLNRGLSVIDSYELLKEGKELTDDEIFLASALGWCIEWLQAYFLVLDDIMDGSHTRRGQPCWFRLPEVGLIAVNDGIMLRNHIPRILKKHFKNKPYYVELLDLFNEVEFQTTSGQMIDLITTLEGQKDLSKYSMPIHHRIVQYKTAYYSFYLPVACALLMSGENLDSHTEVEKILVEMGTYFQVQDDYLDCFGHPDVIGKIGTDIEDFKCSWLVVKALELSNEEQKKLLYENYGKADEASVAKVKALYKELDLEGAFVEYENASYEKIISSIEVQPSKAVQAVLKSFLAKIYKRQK
Chain of SaSS (E3W202 whole entry Y539W): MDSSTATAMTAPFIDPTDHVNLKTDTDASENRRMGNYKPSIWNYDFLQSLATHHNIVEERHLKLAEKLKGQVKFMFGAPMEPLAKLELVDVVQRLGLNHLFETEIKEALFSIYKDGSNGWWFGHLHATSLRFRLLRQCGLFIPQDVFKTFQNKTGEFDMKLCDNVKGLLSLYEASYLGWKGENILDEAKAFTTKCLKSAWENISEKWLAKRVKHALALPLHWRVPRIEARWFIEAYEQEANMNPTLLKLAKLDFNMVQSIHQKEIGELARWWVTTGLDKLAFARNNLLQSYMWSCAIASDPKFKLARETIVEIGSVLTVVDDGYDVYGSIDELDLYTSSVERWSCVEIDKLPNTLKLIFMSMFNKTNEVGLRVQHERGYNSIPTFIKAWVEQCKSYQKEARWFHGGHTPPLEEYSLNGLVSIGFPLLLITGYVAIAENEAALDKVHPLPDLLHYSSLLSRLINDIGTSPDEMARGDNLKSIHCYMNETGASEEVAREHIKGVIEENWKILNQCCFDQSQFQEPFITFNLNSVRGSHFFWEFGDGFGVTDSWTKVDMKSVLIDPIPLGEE

Molecule: CC(C)=CCC/C(C)=C/COP(=O)(O)OP(=O)(O)O [GPP]
- GC / GC-MS of (E,E)-farnesol after alkaline phosphatase (SaFDS; with IPP): Incubation of recombinant SaFDS with equimolar concentrations of IPP and GPP

Molecule: C=C(C)CCOP(=O)(O)OP(=O)(O)O [IPP]
- GC / GC-MS of (E,E)-farnesol after alkaline phosphatase (SaFDS; with GPP or DMAPP): Incubation of recombinant SaFDS with equimolar concentrations of IPP and GPP

Molecule: CC(C)=CCC/C(C)=C/CC/C(C)=C/COP(=O)(O)OP(=O)(O)O [(E,E)-FPP]
- GC / GC-MS product analysis (SaSS): a mutant of SaSS (Y539W, NCBI: JQ690659) was able to cyclize (E,E)-FPP

B1: SaSQS2 (Santalum album) (protein)
chain: MASVIVEPIRCNNDNDVISTVVDDSSVVRRAANYPPNLWDYEFLQSLGDQCTVEEKHLKLADKLKEEVKSLIKQTMEPLTKLEFIDTVRRLGLKYQFETEVKEAVVMVSKYENDAWWIDNLHATSLRFRIMRENGIFVPQDVFERFKDTDGFKNQLCEDVKGLLSLYEASFLGWEGEDILDEARTFATSKLKSIEGKIPSPSLAKKVSHALDLPLHWRTIRYEARWFIDTYEEEEDVNLTLLRYAKLDFNIVQSFHQKEIGRLSRWWVGTGLDKMPFARNGLIQSYMYAIGMLFEPNLGEVREMEAKVGALITTIDDVYDVYGTMEELELFTDITNRWDISKADQLPRNIRMPLLTMFNTSNDIGYWALKERGFNGIPCTAKVWSDQLKSYTKEAKWFHEGHKPTLEEYLDNALVSIGFPNLLVTSYLLTVENPTKEKLDYVNSLPLFVRASCILCRIINDLGTSPDEMERGDNLKSIQCYMNEAGASQEVAREHIEGLVRMWWKRLNKCLFEPSPFAEPFLSFTVNVVRGSHFFYQYGDGYGNAESWTKKQGMSVLIHPIPLNEE
- Km [1]: 15.30 ± 3.83 µM
- kcat [1]: 0.00233 ± 0.000167 s⁻¹
- kcat/Km [1]: 150 M⁻¹ s⁻¹

B2: SaBS (Santalum album) (protein)
chain: MDAFATSPTSALIKAVNCIAHVTPMAGEDSSENRRASNYKPSSWDYEFLQSLATSHNTVQEKHMKMAEKLKEEVKSMIKGQMEPVAKLELINILQRLGLKYRFESEIKEELFSLYKDGTDAWWVDNLHATALRFRLLRENGIFVPQDVFETLKDKSGKFKSQLCKDVRGLLSLYEASYLGWEGEDLLDEAKKFSTTNLNNVKESISSNTLGRLVKHALNLPLHWSAARYEARWFIDEYEKEENVNPNLLKYAKFDFNIVQSIHQRELGNLARWWVETGLDKLSFVRNTLMQNFMWGCAMVFEPQYGKVRDAAVKQASLIAMVDDVYDVYGSLEELEIFTDIVDRWDITGIDKLPRNISMILLTMFNTANQIGYDLLRDRGFNGIPHIAQAWATLCKKYLKEAKWYHSGYKPTLEEYLENGLVSISFVLSLVTAYLQTETLENLTYESAAYVNSVPPLVRYSGLLNRLYNDLGTSSAEIARGDTLKSIQCYMTQTGATEEAAREHIKGLVHEAWKGMNKCLFEQTPFAEPFVGFNVNTVRGSQFFYQHGDGYAVTESWTKDLSLSVLIHPIPLNEED
- Km [2]: 12.59 ± 1.40 µM
- kcat [2]: 0.000667 s⁻¹
- kcat/Km [2]: 50 M⁻¹ s⁻¹

B3: SaSS (Santalum album) (protein)
chain: MDSSTATAMTAPFIDPTDHVNLKTDTDASENRRMGNYKPSIWNYDFLQSLATHHNIVEERHLKLAEKLKGQVKFMFGAPMEPLAKLELVDVVQRLGLNHLFETEIKEALFSIYKDGSNGWWFGHLHATSLRFRLLRQCGLFIPQDVFKTFQNKTGEFDMKLCDNVKGLLSLYEASYLGWKGENILDEAKAFTTKCLKSAWENISEKWLAKRVKHALALPLHWRVPRIEARWFIEAYEQEANMNPTLLKLAKLDFNMVQSIHQKEIGELARWWVTTGLDKLAFARNNLLQSYMWSCAIASDPKFKLARETIVEIGSVLTVVDDGYDVYGSIDELDLYTSSVERWSCVEIDKLPNTLKLIFMSMFNKTNEVGLRVQHERGYNSIPTFIKAWVEQCKSYQKEARWFHGGHTPPLEEYSLNGLVSIGFPLLLITGYVAIAENEAALDKVHPLPDLLHYSSLLSRLINDIGTSPDEMARGDNLKSIHCYMNETGASEEVAREHIKGVIEENWKILNQCCFDQSQFQEPFITFNLNSVRGSHFFYEFGDGFGVTDSWTKVDMKSVLIDPIPLGEE
- Km [3]: 0.59 ± 0.24 µM
- kcat [3]: 0.00833 ± 0.0005 s⁻¹
- kcat/Km [3]: 15000 M⁻¹ s⁻¹

B4: SaSQS1 (Santalum album) (protein)
chain: MDLCQIPPTSPISPSVPFNGDDSSVVRRSANYPANLWDYDFLQSLGRHSSVTEEHVGLAEKLKGEVKSLITGPMEPLAKLEFIDSVRRLGLKYQFETEMKEALANISKDGYDSWWVDNLRATALRFRLLRENGIFVPQDVFERFQNKETGKFKNELCEDVKGLLNLYEASFLGWEGEDILDEARTFSTAQLKNVEGKISSPNLAKIVHHALDLPLHWRAIRYEARWFIDIYEDEEDMNPTLLKYAKLDFNIVQSFHQAEIGRLARWWVGTGLDKLPFARNGLIQSYMYAIGMLFEPHLGEVREMEAKVGALITTIDDVYDVYGTMEELELFTDITERWDINRVDQLPRNIRMPLLTMFNTSNDIGYWALKERGFNGIPYTAKVWADQLKSYTKEAKWFHEGHKPTLEEYLENALVSIGFPNLLVTSYLLTVDNPTKEKLDYVDSLPLFVRASCILCRIINDLGTSPDEMERGDNLKSIQCYMNETGASQEVAREHIEGLVRMWWKRLNKCLFEPSPFTEPFLSFTINVVRGSHFFYQYGDGYGNAESWTKNQGMSVLIHPITLDEE
- Km [4]: 11.12 ± 2.80 µM
- kcat [4]: 0.00583 ± 0.0005 s⁻¹
- kcat/Km [4]: 500 M⁻¹ s⁻¹
